For experiment [1], the target named is T1, Fc tagged human TNFR1 (Sino Biological) (human, UniProt P19438 22-211, limits assumed).
T1 construct: Bought reagent; also called hTNFR1; hTNFR1-Fc; not shown: Fc tag of the bought protein
T1 sequence (looked up): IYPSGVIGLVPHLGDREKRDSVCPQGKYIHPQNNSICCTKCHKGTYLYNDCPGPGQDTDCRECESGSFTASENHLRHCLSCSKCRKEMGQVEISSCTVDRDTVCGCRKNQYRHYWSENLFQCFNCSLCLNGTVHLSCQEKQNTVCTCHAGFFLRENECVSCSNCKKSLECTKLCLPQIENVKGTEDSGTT
The experiment in a line: SPR, Biacore T200 single cycle kinetics, receptor-Fc captured on Protein A chip, TNF 1.67-15 nM. The procedure:
(§1) Single cycle kinetic analysis was performed using a Biacore T200 (serial no. 1909913) running Biacore T200 Evaluation Software V2.0.1 (Uppsala, Sweden). All experiments were run at 25° C. with HBS-P+ running buffer (pH 7.4) (GE Healthcare, Little Chalfont, UK).
(§2) Due to the limit in the number of available flow cells for analysis (three Fc per analysis, Fc2, Fc3 and Fc4, with Fc1 always being used as blank reference for non-specific subtraction), receptor binding was assessed in two separate overlapping runs using either: hTNFR1 (Fc2), hTNFR2 (Fc3) and mTNFR1 (Fc4), or; hTNFR1 (Fc2), […] and mTNFR2 (Fc4). Receptors were diluted in running buffer to a concentration of ˜4 μg/mL and at the start of each cycle loaded onto Fc2, Fc3 and Fc4 of a Protein A chip (GE Healthcare, Little Chalfont, UK) at a flow rate of 10 μL/min to give an RU of 40-100. The surface was then allowed to stabilise. Single cycle kinetic data was obtained at a flow rate of 45 μL/min. […] The association phase for the three injections of increasing concentrations of TNF was monitored for 240 seconds and a single dissociation phase was measured for 2700 seconds following the last injection of TNF. Regeneration of the Protein A surface was conducted using 10 mM glycine-HCl pH 1.5. The signal from the reference channel Fc1 (no receptor) was subtracted from that of Fc2, Fc3 and Fc4 to correct for differences in non-specific binding to a reference surface.
A general note: Surface plasmon resonance follows binding to a sensor surface in real time, without labels.

Experiment [2] concerns the target T2, Fc tagged mouse TNFR1 (Sino Biological) (mouse, UniProt P25118 22-212, limits assumed).
T2 construct: Bought reagent; also called mTNFR1; mTNFR1-Fc; not shown: Fc tag of the bought protein
T2 sequence (looked up): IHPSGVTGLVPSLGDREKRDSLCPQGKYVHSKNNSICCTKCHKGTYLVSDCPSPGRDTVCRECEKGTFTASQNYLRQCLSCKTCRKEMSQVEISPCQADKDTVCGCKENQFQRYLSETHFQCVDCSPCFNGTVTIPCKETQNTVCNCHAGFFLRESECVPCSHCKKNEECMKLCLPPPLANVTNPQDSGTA
The description is as above. The procedure: as §1, §2

Experiment [3] addresses T3, Fc tagged human TNFR2 (Sino Biological) (human, UniProt P20333 23-257).
T3 construct: Bought reagent; also called hTNFR2; hTNFR2-Fc; not shown: Fc tag of the bought protein
T3 sequence (looked up): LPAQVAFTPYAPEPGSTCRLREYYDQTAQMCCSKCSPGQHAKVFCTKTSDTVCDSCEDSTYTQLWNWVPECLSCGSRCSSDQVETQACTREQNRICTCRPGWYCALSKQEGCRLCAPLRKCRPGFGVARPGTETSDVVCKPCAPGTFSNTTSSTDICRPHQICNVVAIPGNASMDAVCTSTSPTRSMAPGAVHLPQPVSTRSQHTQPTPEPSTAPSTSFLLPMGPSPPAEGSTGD
The experiment is described as above. The procedure: as §1, §2

For experiment [4], the target named is T2, Fc tagged mouse TNFR1 (Sino Biological). The experiment in a line: SPR, Biacore single cycle kinetics, stability study, before freezing (t=0). The procedure:
as §2
(§3) At day zero (prior to freezing) and following thawing on ice after 3 months and 1 year the following assays were performed: [0341] SDS-PAGE [0342] OD280 nm [0343] Single cycle Biacore for binding to hTNFR1, hTNFR2 and mTNFR1

Experiment [5] has as its target T3, Fc tagged human TNFR2 (Sino Biological). The experiment is described as above. The procedure:
as §2, §3

In experiment [6] the target is T1, Fc tagged human TNFR1 (Sino Biological). The experiment is described as follows: SPR, Biacore T200 multi cycle kinetics, receptor-Fc captured on Protein A chip, TNF 1.25-40 nM, 1:1 model. The procedure:
(§4) Multi cycle kinetics analysis of binding to hTNFR1, hTNFR2, mTNFR1 and mTNFR2 was performed on the 10 lead variants using a Biacore T200 (serial no. 1909913) instrument running Biacore T200 Evaluation Software V3.0.1 (Uppsala, Sweden) to characterise further the binding to these receptors.
(§5) As with the single cycle kinetics, receptor binding was assessed in two separate experiments. In the first set of experiments binding to hTNFR1 (Fc2), hTNFR2 (Fc3) and mTNFR1 (Fc4) was assessed. In the second set of experiments the extent of mTNF2 (Fc4) binding was assessed using hTNFR1 (Fc2) and hTNFR2 (Fc3) as controls. All receptors were diluted in running buffer to a concentration of ˜4 μg/mL and at the start of each cycle loaded onto Fc2, Fc3 and Fc4 of a Protein A CM5 chip and captured at a flow rate of 10 μL/min to give an RU of ˜40-100. The surface was then allowed to stabilise. All kinetic data was obtained using a flow rate of 75 μl/min to minimise any potential mass transfer effects. […] The association phase of TNF was monitored for 280 seconds and the dissociation phase was measured for 2100 seconds. […] Regeneration of the Protein A surface was conducted using two injections of 10 mM glycine-HCL pH 1.5 at the end of each cycle. The signal from the reference channel Fc1 was subtracted from that of Fc2, Fc3 and Fc4 to correct for differences in non-specific binding to a reference surface, and a global Rmax parameter was used in the 1-to-1 binding model.

The target of experiment [7] is T2, Fc tagged mouse TNFR1 (Sino Biological). The description is as above. The procedure:
as §4, §5

The target in experiment [8] is T3, Fc tagged human TNFR2 (Sino Biological). Described as above. The procedure: as §4, §5

This passage reports Kd results from patent US20220387557A1 (OXFORD UNIVERSITY INNOVATION, published 2022).

B1: TNF mutein B2 (ligand)
chain: VRSSSRTPSDKPVAHVVANPQAEGQLQWLNRRANALLANGVELRDNQLVVPSEGLYLIYSQVLFKGQGCPSTHVLLTHTISRITASYSGKVNLLSAIKSPCQRETPEGAEAKPWYEPIYLGGVFQLEKGDRLSAEINRPDYLDFAESGQVYFGIIAL
notes: Human TNF mutein, TASYSG at positions 84-89; not shown: C-terminal FLAG tag and His6 tag from vector pANT65
Turning to B1, the Kd (usually the equilibrium constant for the complex coming apart) came out at 0.0164 nM in experiment [1]; 0.0256 nM in experiment [2]; 0.315 nM in experiment [3]; 0.0624 nM in experiment [4]; 0.198 nM in experiment [5]; 0.0216 nM in experiment [6]. Moreover, the Kd in experiment [7] was 0.177 nM; in experiment [8], 0.407 nM.
